Series [1] deals with DriD(V73P-F74P) with His-tag (Caulobacter crescentus). In words: SEC. A general note: SEC sorts molecules by how far they enter the pores of the column.
The target in series [2] is DriD(L10E) with His-tag (Caulobacter crescentus). In words: SEC.
In series [3] the target is Caulobacter crescentus full length DriD with His-tag (Caulobacter crescentus). In words: SEC.
In series [4] the target is Caulobacter crescentus full length DriD, tag-free (Caulobacter crescentus). In words: cross-linking.
Series [5] shares this target. In words: mass photometry.
The next series concerns the target T1, DriD(E40A) (Caulobacter crescentus, UniProt Q9A999 5-331, E44A).
T1 sequence: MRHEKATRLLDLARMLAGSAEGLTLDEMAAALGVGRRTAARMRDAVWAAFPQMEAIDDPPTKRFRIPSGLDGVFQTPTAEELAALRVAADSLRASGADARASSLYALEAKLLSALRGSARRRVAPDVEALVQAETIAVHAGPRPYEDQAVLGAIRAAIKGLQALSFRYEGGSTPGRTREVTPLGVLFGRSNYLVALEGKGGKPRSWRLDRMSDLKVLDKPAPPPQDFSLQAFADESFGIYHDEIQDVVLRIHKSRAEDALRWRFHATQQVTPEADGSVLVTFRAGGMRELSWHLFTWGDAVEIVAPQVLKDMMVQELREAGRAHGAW
In words: fluorescence polarization.

The next series deals with T2, DriD(E40K) (Caulobacter crescentus, UniProt Q9A999 5-331, E44K).
T2 sequence: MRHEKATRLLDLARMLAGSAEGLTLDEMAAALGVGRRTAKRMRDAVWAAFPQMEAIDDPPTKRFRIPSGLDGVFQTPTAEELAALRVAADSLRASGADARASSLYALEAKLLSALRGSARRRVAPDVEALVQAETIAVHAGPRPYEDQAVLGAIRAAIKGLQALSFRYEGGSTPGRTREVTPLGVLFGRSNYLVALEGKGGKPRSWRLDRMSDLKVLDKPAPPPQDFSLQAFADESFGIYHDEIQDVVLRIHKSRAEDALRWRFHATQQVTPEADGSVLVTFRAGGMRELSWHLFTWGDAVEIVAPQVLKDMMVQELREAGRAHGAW
In words: fluorescence polarization. In general terms: Polarisation of emitted light reports the rotation of a fluorescent probe.

A further series deals with T3, DriD(V73P-F74P) (Caulobacter crescentus, UniProt Q9A999 5-331, V77P;F78P).
T3 sequence: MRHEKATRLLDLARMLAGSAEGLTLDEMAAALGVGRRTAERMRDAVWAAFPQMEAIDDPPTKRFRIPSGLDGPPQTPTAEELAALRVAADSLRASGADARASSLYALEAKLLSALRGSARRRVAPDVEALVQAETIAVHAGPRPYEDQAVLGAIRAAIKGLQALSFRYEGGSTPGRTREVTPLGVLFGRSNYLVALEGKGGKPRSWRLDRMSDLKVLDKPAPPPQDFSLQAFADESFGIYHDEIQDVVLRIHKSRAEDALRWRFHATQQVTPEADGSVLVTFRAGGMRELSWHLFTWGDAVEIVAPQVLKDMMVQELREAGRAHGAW
In words: fluorescence polarization.

The next series has as its target T4, DriD(L10E) (Caulobacter crescentus, UniProt Q9A999 5-331, L14E).
T4 sequence: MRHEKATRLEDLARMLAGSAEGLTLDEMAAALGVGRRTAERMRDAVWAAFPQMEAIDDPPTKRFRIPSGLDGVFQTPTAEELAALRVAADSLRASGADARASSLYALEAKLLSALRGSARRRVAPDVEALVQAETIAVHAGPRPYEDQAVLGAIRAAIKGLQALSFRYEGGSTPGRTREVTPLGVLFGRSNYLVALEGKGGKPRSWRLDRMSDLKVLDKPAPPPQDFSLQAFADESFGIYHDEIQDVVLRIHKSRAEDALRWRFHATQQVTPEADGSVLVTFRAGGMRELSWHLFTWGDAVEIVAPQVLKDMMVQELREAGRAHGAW
In words: fluorescence polarization.

The target in series [6] is T5, DriD WT (Caulobacter crescentus, UniProt Q9A999 5-331).
T5 sequence: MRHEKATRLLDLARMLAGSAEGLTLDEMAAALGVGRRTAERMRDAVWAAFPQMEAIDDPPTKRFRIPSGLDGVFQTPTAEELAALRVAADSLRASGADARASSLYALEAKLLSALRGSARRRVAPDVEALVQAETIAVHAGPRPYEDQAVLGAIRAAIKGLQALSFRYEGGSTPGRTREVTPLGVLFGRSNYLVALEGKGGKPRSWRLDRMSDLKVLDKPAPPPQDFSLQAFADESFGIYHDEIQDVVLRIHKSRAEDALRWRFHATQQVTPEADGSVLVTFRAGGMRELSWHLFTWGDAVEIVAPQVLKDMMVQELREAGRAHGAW
In words: fluorescence polarization.

In a further series the target is T6, DriD(T61A-K62A) (Caulobacter crescentus, UniProt Q9A999 5-331, T65A;K66A).
T6 sequence: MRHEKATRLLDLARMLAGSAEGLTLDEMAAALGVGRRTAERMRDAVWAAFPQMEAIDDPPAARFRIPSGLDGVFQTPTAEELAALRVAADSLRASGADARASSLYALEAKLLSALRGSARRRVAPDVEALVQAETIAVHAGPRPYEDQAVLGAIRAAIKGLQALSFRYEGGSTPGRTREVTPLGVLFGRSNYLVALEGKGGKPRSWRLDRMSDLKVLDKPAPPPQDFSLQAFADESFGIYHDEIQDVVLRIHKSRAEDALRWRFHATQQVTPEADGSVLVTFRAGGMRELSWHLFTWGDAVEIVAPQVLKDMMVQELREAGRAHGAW
In words: fluorescence polarization.

The target of series [7] is T5, DriD WT. In words: fluorescence polarization. This is another data set of the same source.
Series [8] deals with T5, DriD WT. In words: X-ray crystallography 2.74 A.

The molecule “DriD(V73P-F74P) with His-tag (natural protein)” returned a stoichiometry N in series [1] of 2.

“DriD(L10E) with His-tag (natural protein)” returned a stoichiometry N in series [2] of 2. With “Caulobacter crescentus full length DriD with His-tag (natural protein)”, the stoichiometry N in [3] was determined as 2. With “Caulobacter crescentus full length DriD, tag-free (natural protein)”, the stoichiometry N in series [4] and in [5] was 2 throughout.

B1: driD promoter 21 bp site (FP) (dsDNA)
DNA 1: ATACGACAGTTACTGTCGTAT
DNA 2: ATACGACAGTAACTGTCGTAT
In the case of B1, the binding signal with DriD(E40A) is 7 fold reduction vs WT protein; with DriD(E40K) it was 83 fold reduction vs WT protein. For the same molecule, the dissociation constant Kd stood at 133 ± 10.4 nM with DriD(V73P-F74P), 120 ± 23.6 nM with DriD(L10E), 1.6 ± 0.04 nM with DriD WT [6] and 1200 ± 200 nM in the series with DriD(T61A-K62A).

B2: GC-rich center mutant (dsDNA)
DNA 1: ATACGACGGCCGCCGTCGTAT
DNA 2: ATACGACGGCGGCCGTCGTAT
For the molecule B2, the binding signal with DriD WT [7] was found to be 20 fold reduction vs WT site.

B3: C1/G15 to T/A (dsDNA)
DNA 1: ATATGACAGTTACTGTCATAT
DNA 2: ATATGACAGTAACTGTCATAT
For the molecule B3, in the series with DriD WT [6], the Kd is 6.9 ± 1.7 nM.

B4: 7mer ssDNA effector (ssDNA)
DNA: TGTCTAT
B4: in the series with DriD WT [8], the binding result is recorded as “binds”.

B5: C4/G12 to T/A (dsDNA)
DNA 1: ATACGATAGTTACTATCGTAT
DNA 2: ATACGATAGTAACTATCGTAT
In the series with DriD WT [6], B5 yielded a Kd of 962 ± 182 nM.

B6: G2/C14 to A/T (dsDNA)
DNA 1: ATACAATAGTTACTATTGTAT
DNA 2: ATACAATAGTAACTATTGTAT
B6: the Kd in the series with DriD WT [6] was determined as 512 ± 227 nM.

B7: position 3/13 mutant (T3/A13 to C/G in text) (dsDNA)
DNA 1: ATACGGCAGTTACTGCCGTAT
DNA 2: ATACGGCAGTAACTGCCGTAT
In the series with DriD WT [6], B7 returned a Kd of 7.1 ± 0.9 nM.

The term stoichiometry N denotes the number of molecules, sites or subunits per partner or assembly. Broadly, the Kd is the constant that tells how readily two partners part at equilibrium.

Values taken from PMC10853764.
